Measurements: patent publication US20240209076A1 (KODIAK SCIENCES, published 2024)
Changes are numbered by the printed parent chain. In names and notes the source's numbering stands. Blank lines part the entries; values can stand above or below the binder they belong to.

Legend:
human IL-6 [1] = biological target: T1, human IL-6 (human, UniProt P05231 30-212); test: SPR Biacore, supernatant Ab on Protein A chip, 37 C
T1 construct: IL-6 flowed over captured antibodies
Protocol: (§1) Antibodies were captured on a Protein A chip (GE) by injecting 1:20 cell supernatant dilutions at 10 μL/min for 60 seconds. […] The sensor chip was regenerated by a 60 seconds injection of 10 mM Glycine pH 1.7 at the flow rate of 50 μL/min. […] For this setup, 1 μg/mL of purified antibody was injected over a Protein A chip at 10 μL/min for 25 seconds. […] The sensor chip was regenerated by a 60 seconds injection of 10 mM Glycine pH 1.7 at flow rate of 50 μL/min. Data analysis for supernatant and purified samples were performed using BIAevaluation software (GE). All sensorgrams were double reference subtracted and fit using a 1:1 Langmuir binding model.
T1 sequence (P05231 30-212 limits assumed): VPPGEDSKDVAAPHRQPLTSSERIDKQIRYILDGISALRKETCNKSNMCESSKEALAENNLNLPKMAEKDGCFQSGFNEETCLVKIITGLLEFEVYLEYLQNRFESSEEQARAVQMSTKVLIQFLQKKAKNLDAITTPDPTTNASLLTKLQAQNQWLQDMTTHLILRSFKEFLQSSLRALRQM

human IL-6 [2] = biological target: human IL-6 (human, UniProt P05231 30-212); test: SPR Biacore, supernatant, Protein A capture, 37 C
Protocol: Those four positions were selected based on their tolerance for mutations as observed in bacterial and mammalian screens. […] These cultures were centrifuged and supernatants containing secreted antibodies were harvested and diluted in HBS-EP+ running buffer (1:20 ratio).
as §1
Target sequence in this assay (P05231 30-212 limits assumed): as above

Kd (human IL-6 [1]): 0.559 nM | koff (human IL-6 [1]): 0.000899 s⁻¹ | kon (human IL-6 [1]): 1.61e+06 M⁻¹ s⁻¹
B1: anti-IL-6 antibody, heavy chain I51A, G66D / light chain M32L, M50D, N52S, M88Q (antibody, IgG1, V domains shown)
VH: EVQLVESGGGLVQPGGSLRLSCAASGFTFSPFAMSWVRQAPGKGLEWVAKASPGGSWTYYSDTVTDRFTFSLDTSKSTAYLQMNSLRAEDTAVYYCARQLWGYYALDIWGQGTLVTVSS
VL: DIQLTQSPSSLSASVGDRVTITCSASISVSYLYWYQQKPGKAPKLLIYDDSSLASGVPSRFSGSGSGTDFTLTISSLQPEDFATYYCQQWSGYPYTFGQGTKVEIK
notes: Full IgG1 (Expi293); VL = variant III

Kd (human IL-6 [2]): 2.51 nM | koff (human IL-6 [2]): 0.00547 s⁻¹ | kon (human IL-6 [2]): 2.17e+06 M⁻¹ s⁻¹
B2: Anti-IL-6 antibody, heavy chain S35H, G66D, Q99Y / light chain M32L, M50D, N52S, M88Q (antibody, IgG1, V domains shown)
VH: B1 VH with S35H, A51I, Q99Y
VL: B1 VL
notes: IgG1; variable domains only; VL is variant III

Kd (human IL-6 [2]): 0.0997 nM | koff (human IL-6 [2]): 0.000113 s⁻¹ | kon (human IL-6 [2]): 1.14e+06 M⁻¹ s⁻¹
B3: Anti-IL-6 antibody, heavy chain S35H, G66D, Q99F / light chain M32L, M50D, N52S, M88Q (antibody, IgG1, V domains shown)
VH: B1 VH with S35H, A51I, Q99F
VL: B1 VL
notes: as for B2

Kd (human IL-6 [2]): 2.58 nM | koff (human IL-6 [2]): 0.00774 s⁻¹ | kon (human IL-6 [2]): 3e+06 M⁻¹ s⁻¹
B4: Anti-IL-6 antibody, heavy chain S35H, G66D, Q99G / light chain M32L, M50D, N52S, M88Q (antibody, IgG1, V domains shown)
VH: B1 VH with S35H, A51I, Q99G
VL: B1 VL
notes: as for B2

Kd (human IL-6 [2]): 3.07 nM | koff (human IL-6 [2]): 0.0045 s⁻¹ | kon (human IL-6 [2]): 1.47e+06 M⁻¹ s⁻¹
B5: Anti-IL-6 antibody, heavy chain S35H, G66D, Q99A / light chain M32L, M50D, N52S, M88Q (antibody, IgG1, V domains shown)
VH: B1 VH with S35H, A51I, Q99A
VL: B1 VL
notes: as for B2

Kd (human IL-6 [2]): 1.7 nM | koff (human IL-6 [2]): 0.00136 s⁻¹ | kon (human IL-6 [2]): 802000 M⁻¹ s⁻¹
B6: Anti-IL-6 antibody, heavy chain S35H, G66D, Q99H / light chain WT (antibody, IgG1, V domains shown)
VH: B1 VH with S35H, A51I, Q99H
VL: B1 VL with L32M, D50M, S52N, Q88M
notes: IgG1; variable domains only

Kd (human IL-6 [2]): 0.595 nM | koff (human IL-6 [2]): 0.000775 s⁻¹ | kon (human IL-6 [2]): 1.3e+06 M⁻¹ s⁻¹
B7: Anti-IL-6 antibody, heavy chain S35H, G66D, Q99L / light chain M32L, M50D, N52S, M88Q (antibody, IgG1, V domains shown)
VH: B1 VH with S35H, A51I, Q99L
VL: B1 VL
notes: as for B2

Kd (human IL-6 [1]): 9.58 nM | koff (human IL-6 [1]): 0.00799 s⁻¹ | kon (human IL-6 [1]): 834000 M⁻¹ s⁻¹
B8: anti-IL-6 antibody, heavy chain I51D, G66D / light chain M32L, M50D, N52S, M88Q (antibody, IgG1, V domains shown)
VH: B1 VH with A51D
VL: B1 VL
notes: as for B1

Kd (human IL-6 [2]): 6.51 nM | koff (human IL-6 [2]): 0.049 s⁻¹ | kon (human IL-6 [2]): 7.52e+06 M⁻¹ s⁻¹
B9: Anti-IL-6 antibody, heavy chain S35H, G66D, Q99T / light chain M32L, M50D, N52S, M88Q (antibody, IgG1, V domains shown)
VH: B1 VH with S35H, A51I, Q99T
VL: B1 VL
notes: as for B2

Kd (human IL-6 [2]): 5.52 nM | koff (human IL-6 [2]): 0.00441 s⁻¹ | kon (human IL-6 [2]): 798000 M⁻¹ s⁻¹
B10: Anti-IL-6 antibody, heavy chain S35H, G66D, Q99H / light chain M32L, M50D, N52S, M88Q (antibody, IgG1, V domains shown)
VH: B1 VH with S35H, A51I, Q99H
VL: B1 VL
notes: as for B2

Kd (human IL-6 [2]): 0.934 nM | koff (human IL-6 [2]): 0.000801 s⁻¹ | kon (human IL-6 [2]): 858000 M⁻¹ s⁻¹
B11: Anti-IL-6 antibody, heavy chain S35H, G66D, L100Y / light chain M32L, M50D, N52S, M88Q (antibody, IgG1, V domains shown)
VH: B1 VH with S35H, A51I, L100Y
VL: B1 VL
notes: as for B2

Kd (human IL-6 [2]): 1.76 nM | koff (human IL-6 [2]): 0.0014 s⁻¹ | kon (human IL-6 [2]): 794000 M⁻¹ s⁻¹
B12: Anti-IL-6 antibody, heavy chain S35H, G66D, Q99V / light chain M32L, M50D, N52S, M88Q (antibody, IgG1, V domains shown)
VH: B1 VH with S35H, A51I, Q99V
VL: B1 VL
notes: as for B2

Kd (human IL-6 [2]): 0.825 nM | koff (human IL-6 [2]): 0.00215 s⁻¹ | kon (human IL-6 [2]): 2.6e+06 M⁻¹ s⁻¹
B13: Anti-IL-6 antibody, heavy chain S35H, G66D, Q99Y / light chain WT (antibody, IgG1, V domains shown)
VH: B1 VH with S35H, A51I, Q99Y
VL: B1 VL with L32M, D50M, S52N, Q88M
notes: IgG1; variable domains only

Kd (human IL-6 [2]): 4.8 nM | koff (human IL-6 [2]): 0.00431 s⁻¹ | kon (human IL-6 [2]): 898000 M⁻¹ s⁻¹
B14: Anti-IL-6 antibody, heavy chain S35H, G66D, Q99V / light chain WT (antibody, IgG1, V domains shown)
VH: B1 VH with S35H, A51I, Q99V
VL: B1 VL with L32M, D50M, S52N, Q88M
notes: IgG1; variable domains only

Kd (human IL-6 [2]): 2.34 nM | koff (human IL-6 [2]): 0.000657 s⁻¹ | kon (human IL-6 [2]): 280000 M⁻¹ s⁻¹
B15: Anti-IL-6 antibody, heavy chain S35H, G66D, Q99R / light chain M32L, M50D, N52S, M88Q (antibody, IgG1, V domains shown)
VH: B1 VH with S35H, A51I, Q99R
VL: B1 VL
notes: as for B2

Kd (human IL-6 [2]): 0.0381 nM | koff (human IL-6 [2]): 0.000206 s⁻¹ | kon (human IL-6 [2]): 5.41e+06 M⁻¹ s⁻¹
B16: Anti-IL-6 antibody, heavy chain S35H, G66D, Q99I / light chain M32L, M50D, N52S, M88Q (antibody, IgG1, V domains shown)
VH: B1 VH with S35H, A51I, Q99I
VL: B1 VL
notes: as for B2

Kd (human IL-6 [2]): 6.48 nM | koff (human IL-6 [2]): 0.0257 s⁻¹ | kon (human IL-6 [2]): 3.96e+06 M⁻¹ s⁻¹
B17: Anti-IL-6 antibody, heavy chain S35H, G66D, Q99S / light chain WT (antibody, IgG1, V domains shown)
VH: B1 VH with S35H, A51I, Q99S
VL: B1 VL with L32M, D50M, S52N, Q88M
notes: IgG1; variable domains only

Kd (human IL-6 [2]): 1.35 nM | koff (human IL-6 [2]): 0.00169 s⁻¹ | kon (human IL-6 [2]): 1.25e+06 M⁻¹ s⁻¹
B18: Anti-IL-6 antibody, heavy chain S35H, G66D, Q99P / light chain M32L, M50D, N52S, M88Q (antibody, IgG1, V domains shown)
VH: B1 VH with S35H, A51I, Q99P
VL: B1 VL
notes: as for B2
